Measured values: the supplement of paper PMC10065799, “High-throughput profiling of sequence recognition by tyrosine kinases and SH2 domains using bacterial peptide display” (eLife, 2023)

Key:
SHP2-C SH2 = test: SH2 binding enrichment of the phosphorylated peptide, bacterial display (enrichment ratio); higher = better substrate or ligand; peptides without Tyr show the background
Grb2 SH2 = Grb2 SH2 (UniProt P62993); test: as above
c-Src SH2 = test: as above
FGFR1 = FGFR1 (UniProt P11362); test: phosphorylation enrichment, bacterial display (enrichment ratio); higher = better substrate or ligand; peptides without Tyr show the background
EPHB1 = EPHB1 (UniProt P54762); test: as above
Hck = Hck (UniProt P08631); test: as above
Fyn = Fyn (UniProt P06241); test: as above
Fes = Fes (UniProt P07332); test: as above
MERTK = MERTK (UniProt Q12866); test: as above
c-Src = test: as above
FGFR3 = FGFR3 (UniProt P22607); test: as above
AncSZ = test: as above
EPHB2 = EPHB2 (UniProt P29323); test: as above
Jak2 = Jak2 (UniProt O60674); test: as above
c-Abl (mouse) = test: as above
Fer (mouse) = test: as above
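For SH2 binding enrichment of the phosphorylated peptide, bacterial display in this document: peptide library displayed on the E. coli surface as eCPX fusions, selected cells deep-sequenced, score is each peptide's frequency after selection divided by its frequency in the input.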
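For phosphorylation enrichment, bacterial display in this document: 11-residue human phosphosite peptides and single-mutation variants displayed on the E. coli surface, counted by deep sequencing, each peptide's frequency after selection divided by its frequency in the unselected input library; frequency after pTyr selection over input frequency; kinase dosed for 20-30% of maximal phosphorylation in three min.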

Sequence of FGFR3 (P22607 whole entry, looked up): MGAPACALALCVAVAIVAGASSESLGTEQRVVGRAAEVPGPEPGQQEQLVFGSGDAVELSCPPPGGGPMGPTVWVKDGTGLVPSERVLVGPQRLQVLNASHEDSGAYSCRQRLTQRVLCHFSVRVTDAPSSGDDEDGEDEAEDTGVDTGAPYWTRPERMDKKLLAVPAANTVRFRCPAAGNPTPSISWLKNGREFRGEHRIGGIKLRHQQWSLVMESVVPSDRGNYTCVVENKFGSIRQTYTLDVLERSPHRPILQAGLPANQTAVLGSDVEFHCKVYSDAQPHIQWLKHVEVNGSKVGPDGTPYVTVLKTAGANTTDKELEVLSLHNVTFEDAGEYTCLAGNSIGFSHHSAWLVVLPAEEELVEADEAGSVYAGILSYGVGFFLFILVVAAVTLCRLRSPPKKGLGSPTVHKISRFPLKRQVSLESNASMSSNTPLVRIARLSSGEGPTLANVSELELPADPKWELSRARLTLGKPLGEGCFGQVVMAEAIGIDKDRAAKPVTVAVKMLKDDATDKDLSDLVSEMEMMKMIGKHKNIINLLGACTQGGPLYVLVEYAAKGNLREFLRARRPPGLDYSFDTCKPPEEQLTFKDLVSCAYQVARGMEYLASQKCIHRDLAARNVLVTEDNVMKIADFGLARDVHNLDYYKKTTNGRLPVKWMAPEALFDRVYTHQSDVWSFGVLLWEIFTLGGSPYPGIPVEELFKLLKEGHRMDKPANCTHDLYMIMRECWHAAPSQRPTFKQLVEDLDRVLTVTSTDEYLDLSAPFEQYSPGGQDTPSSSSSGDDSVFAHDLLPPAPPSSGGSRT
Sequence of Fyn (P06241 whole entry, looked up): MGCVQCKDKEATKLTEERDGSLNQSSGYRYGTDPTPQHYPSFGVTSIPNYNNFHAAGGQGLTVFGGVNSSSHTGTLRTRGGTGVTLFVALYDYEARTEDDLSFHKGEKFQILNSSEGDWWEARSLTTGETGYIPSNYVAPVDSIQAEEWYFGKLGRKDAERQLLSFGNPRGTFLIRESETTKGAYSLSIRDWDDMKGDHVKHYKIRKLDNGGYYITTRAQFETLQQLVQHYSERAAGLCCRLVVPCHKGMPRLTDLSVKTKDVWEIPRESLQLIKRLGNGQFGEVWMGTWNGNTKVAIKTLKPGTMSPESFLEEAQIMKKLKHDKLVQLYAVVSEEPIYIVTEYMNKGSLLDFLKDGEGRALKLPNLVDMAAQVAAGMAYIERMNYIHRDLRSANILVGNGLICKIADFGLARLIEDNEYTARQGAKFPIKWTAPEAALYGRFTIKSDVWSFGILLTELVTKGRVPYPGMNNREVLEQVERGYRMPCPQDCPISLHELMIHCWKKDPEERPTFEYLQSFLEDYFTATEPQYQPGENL
Sequence of MERTK (Q12866 whole entry, looked up): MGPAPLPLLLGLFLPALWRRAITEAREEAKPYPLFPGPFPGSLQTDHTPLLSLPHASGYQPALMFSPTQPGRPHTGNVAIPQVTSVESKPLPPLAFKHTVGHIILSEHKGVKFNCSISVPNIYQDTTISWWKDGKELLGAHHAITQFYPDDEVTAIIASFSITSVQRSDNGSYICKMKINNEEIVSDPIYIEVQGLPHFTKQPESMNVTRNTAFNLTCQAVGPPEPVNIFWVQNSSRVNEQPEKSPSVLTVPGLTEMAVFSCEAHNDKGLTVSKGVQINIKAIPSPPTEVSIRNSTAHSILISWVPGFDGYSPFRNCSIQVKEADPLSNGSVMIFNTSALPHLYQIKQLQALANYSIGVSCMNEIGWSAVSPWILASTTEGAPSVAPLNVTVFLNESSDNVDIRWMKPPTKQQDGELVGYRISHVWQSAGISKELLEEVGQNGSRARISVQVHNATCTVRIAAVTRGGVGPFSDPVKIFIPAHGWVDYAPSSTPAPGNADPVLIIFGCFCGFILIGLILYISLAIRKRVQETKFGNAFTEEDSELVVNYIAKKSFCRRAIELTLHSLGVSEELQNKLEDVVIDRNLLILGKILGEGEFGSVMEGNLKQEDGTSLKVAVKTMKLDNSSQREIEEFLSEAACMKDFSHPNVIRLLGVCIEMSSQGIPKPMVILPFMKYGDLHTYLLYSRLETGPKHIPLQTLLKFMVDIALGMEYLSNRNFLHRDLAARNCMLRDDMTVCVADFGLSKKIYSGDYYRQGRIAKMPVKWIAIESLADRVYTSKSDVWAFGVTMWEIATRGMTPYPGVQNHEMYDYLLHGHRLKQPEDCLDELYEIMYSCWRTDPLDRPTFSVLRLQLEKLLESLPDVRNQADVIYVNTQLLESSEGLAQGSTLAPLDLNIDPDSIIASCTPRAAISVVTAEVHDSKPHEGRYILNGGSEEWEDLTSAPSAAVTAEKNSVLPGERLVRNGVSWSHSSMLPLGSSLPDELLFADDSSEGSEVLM
Sequence of EPHB1 (P54762 whole entry, looked up): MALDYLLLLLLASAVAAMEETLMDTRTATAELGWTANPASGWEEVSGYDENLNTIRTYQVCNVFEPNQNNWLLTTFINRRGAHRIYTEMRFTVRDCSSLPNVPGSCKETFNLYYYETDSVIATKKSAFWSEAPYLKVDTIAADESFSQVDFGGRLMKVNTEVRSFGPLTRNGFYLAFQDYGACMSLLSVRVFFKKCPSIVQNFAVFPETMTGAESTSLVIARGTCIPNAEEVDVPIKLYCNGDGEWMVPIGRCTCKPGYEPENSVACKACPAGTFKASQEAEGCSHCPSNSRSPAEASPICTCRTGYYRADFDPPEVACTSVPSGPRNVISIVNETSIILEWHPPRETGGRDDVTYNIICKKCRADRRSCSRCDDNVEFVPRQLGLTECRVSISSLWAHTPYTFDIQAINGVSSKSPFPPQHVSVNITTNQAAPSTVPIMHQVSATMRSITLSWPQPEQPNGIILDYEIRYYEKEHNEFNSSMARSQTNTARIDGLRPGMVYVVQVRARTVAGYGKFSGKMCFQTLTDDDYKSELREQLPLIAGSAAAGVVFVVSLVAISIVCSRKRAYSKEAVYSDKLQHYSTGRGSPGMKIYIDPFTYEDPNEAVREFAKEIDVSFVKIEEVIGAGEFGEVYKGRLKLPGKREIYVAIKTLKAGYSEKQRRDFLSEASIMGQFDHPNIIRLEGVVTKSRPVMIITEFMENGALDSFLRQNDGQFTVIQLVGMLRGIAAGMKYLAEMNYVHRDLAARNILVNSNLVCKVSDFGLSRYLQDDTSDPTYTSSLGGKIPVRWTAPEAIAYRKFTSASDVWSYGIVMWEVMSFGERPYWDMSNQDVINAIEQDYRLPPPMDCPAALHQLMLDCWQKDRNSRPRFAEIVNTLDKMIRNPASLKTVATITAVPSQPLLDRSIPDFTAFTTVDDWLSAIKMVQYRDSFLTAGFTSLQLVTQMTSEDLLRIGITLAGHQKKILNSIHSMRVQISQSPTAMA
Sequence of EPHB2 (P29323 whole entry, looked up): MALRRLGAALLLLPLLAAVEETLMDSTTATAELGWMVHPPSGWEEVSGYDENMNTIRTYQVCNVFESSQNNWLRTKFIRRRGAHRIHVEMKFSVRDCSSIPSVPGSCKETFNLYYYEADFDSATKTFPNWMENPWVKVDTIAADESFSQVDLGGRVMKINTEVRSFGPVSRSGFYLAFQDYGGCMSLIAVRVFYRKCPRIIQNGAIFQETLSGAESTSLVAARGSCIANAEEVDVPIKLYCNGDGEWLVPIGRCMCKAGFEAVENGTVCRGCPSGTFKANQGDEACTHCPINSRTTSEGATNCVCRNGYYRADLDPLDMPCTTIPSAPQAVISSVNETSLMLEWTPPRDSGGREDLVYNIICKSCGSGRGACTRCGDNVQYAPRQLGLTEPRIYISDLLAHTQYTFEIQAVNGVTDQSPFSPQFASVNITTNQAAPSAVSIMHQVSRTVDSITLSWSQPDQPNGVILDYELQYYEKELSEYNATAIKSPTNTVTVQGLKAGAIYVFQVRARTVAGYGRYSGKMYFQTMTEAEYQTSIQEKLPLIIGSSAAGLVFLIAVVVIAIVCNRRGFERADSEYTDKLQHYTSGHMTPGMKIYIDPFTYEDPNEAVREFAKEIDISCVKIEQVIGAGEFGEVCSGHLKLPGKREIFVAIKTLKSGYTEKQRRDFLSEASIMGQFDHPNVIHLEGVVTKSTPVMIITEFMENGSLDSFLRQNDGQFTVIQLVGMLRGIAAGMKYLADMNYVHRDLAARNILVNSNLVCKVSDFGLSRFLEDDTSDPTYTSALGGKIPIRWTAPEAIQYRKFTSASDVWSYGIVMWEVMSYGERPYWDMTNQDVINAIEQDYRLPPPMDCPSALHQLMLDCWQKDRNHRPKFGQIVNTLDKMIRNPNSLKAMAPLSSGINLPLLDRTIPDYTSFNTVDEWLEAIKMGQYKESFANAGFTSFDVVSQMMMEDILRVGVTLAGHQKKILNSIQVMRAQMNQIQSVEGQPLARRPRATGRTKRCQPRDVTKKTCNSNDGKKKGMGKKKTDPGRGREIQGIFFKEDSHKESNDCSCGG
Sequence of Hck (P08631 whole entry, looked up): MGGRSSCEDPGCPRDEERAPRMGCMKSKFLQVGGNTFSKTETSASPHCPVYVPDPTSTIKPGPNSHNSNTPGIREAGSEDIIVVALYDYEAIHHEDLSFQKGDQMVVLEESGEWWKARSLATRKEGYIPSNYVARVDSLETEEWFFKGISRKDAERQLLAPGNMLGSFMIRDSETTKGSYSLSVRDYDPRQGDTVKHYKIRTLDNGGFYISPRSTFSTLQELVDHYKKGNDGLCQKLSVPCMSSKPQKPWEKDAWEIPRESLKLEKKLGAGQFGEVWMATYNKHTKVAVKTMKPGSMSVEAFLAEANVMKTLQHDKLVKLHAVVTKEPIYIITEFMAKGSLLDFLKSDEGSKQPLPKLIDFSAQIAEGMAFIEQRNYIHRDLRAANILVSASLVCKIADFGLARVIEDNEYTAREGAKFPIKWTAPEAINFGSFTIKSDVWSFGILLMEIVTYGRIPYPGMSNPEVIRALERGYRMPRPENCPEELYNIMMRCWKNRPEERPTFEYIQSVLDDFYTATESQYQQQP

SH2 binding enrichment (SHP2-C SH2)	SH2 binding enrichment (Grb2 SH2)	SH2 binding enrichment (c-Src SH2)	Sequence	phosphorylation enrichment (FGFR1)	phosphorylation enrichment (EPHB1)	phosphorylation enrichment (Hck)	phosphorylation enrichment (Fyn)	phosphorylation enrichment (Fes)	phosphorylation enrichment (MERTK)	phosphorylation enrichment (c-Src)	phosphorylation enrichment (FGFR3)	phosphorylation enrichment (AncSZ)	phosphorylation enrichment (EPHB2)	phosphorylation enrichment (Jak2)	phosphorylation enrichment (c-Abl (mouse))	phosphorylation enrichment (Fer (mouse))
0.574	0.844	0.535	IGKDLYANNVL [ACTA2_Y296_R292G]	0.45	0.679	0.775	0.526	1.15	0.556	0.55	0.64	1.2	0.634	1.03	0.77	0.619
0.733	0.831	0.548	ASLEAYCKHKY [RXRA_Y403]	0.472	0.53	0.455	0.503	1.01	0.392	0.411	0.658	0.964	0.501	0.799	0.727	0.424
0.652	1.03	0.674	LFSGDYFRIQG [DDR2_Y740_YF]	23.1	6.99	1.57	1.36	2.04	2.08	3.77	15.7	4.61	4.1	23.4	1.67	0.739
1.79	1.2	2.2	YVSSFYHAFSG [ACTN4_Y265]	3.31	2.21	2.82	2.76	0.884	8.9	3.68	2.32	1.04	1.41	0.895	1.28	0.564
0.592	0.767	0.705	FEPWVYSFSYE [PRKDC_Y647]	0.655	0.759	2.94	6.53	1.36	1.22	5.83	1.03	1.43	0.654	1.3	0.861	1.35
0.449	0.383	0.243	LVRAFYCERRR [CARD11_Y970]	0.766	0.62	1.14	0.844	0.713	0.902	0.988	0.585	0.684	1.71	0.705	0.597	0.624
1.59	0.863	1.92	KHMADYPDCKY [SOX11_Y113_Y116C]	0.635	0.483	0.55	0.251	1.01	0.375	0.368	1.31	0.65	0.783	1.07	1.36	0.504
0.757	0.731	0.494	AGRSGYDNREI [BCL2_Y9_T7S]	0.366	0.386	0.441	0.426	0.635	0.366	0.394	0.49	0.574	0.409	0.52	0.551	0.32
